Experimental findings from patent publication US20180355060A1 (published 2018) are described below.

In test [1] the target is T1, human transglutaminase type 2 (TG2) (human, UniProt P21980 1-687).
T1 construct: Recombinant human TG2 bought from Zedira (cat. T002) in ELISA, SPR and enzyme assays; also called hTG2; rhTG2
T1 sequence: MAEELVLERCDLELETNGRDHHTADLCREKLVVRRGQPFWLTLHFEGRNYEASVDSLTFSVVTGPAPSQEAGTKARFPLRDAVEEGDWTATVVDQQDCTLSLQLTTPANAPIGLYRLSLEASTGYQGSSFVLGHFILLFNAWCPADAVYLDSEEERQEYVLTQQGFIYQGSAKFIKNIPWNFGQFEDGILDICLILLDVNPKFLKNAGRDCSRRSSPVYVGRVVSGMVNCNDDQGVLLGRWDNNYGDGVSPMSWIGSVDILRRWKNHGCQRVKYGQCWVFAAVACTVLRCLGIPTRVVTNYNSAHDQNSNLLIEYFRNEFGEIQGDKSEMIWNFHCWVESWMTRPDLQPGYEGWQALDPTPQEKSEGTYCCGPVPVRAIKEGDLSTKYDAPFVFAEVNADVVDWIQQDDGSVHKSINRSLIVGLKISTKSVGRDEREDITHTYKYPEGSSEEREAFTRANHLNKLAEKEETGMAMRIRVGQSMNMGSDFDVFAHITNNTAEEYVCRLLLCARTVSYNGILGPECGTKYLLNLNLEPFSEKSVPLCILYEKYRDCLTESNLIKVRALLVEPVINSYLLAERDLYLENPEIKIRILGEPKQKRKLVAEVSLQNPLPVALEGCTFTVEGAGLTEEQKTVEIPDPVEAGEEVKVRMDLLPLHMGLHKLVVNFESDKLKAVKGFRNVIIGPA
As to the kind of experiment: SPR (Biacore T200), antibody captured on anti-human IgG1 Fc chip, human TG2 injected; -Ca2+. The procedure: (§1) FIG. 45: Human TG2 binding to cAB003 immobilised antibody by Biacore. The association phases of human TG2 injections over the cAB003-coated biosensor at 25, 50, 100 and 200 nM, including in duplicate at 50 nM, are shown on the left. From the same experiment, two long dissociation phases were collected, as shown on the right.
(§2) The method employed to determine the affinity of the anti-TG2 antibodies involved the capture of the chimeric or humanised antibodies on a MAH coated CM5 chip, followed by the injection of a series of TG2 samples in running buffer. The running buffer was 1× HBS-P+ containing 1 mM CaCl₂, or 1×HBS-EP+ for calcium-free experiments. Antibody capture was carried out for a contact time of 120 seconds at a flow rate of 10 μl/min resulting in the capture of approximately 40-80 RU. TG2 was injected over the immobilised antibody at concentrations ranging from 25 nM to 400 nM with a contact time up to 600 seconds at a flow rate of 30 μl/min. Dissociation of TG2 was typically measured for up to 5400 seconds (1.5 hours). Regeneration of the chip was then performed using 3 M MgCl₂, for a contact time of 60 seconds at a flow rate of […], followed by a 300s stabilisation period before the next sample. […]
(§3) Kinetic data were exported from the Biacore T200 Evaluation Software and analysed using GraphPad Prism, where the association phases and dissociation phases were analysed separately using a one phase association model and one-phase exponential decay model respectively. Association rates (kₒₙ) were calculated for each curve individually, and dissociation rates (koff) values from the long dissociation phase data collected. Where koff values were calculated to be <1×10⁻⁵ s⁻¹, values were set at 1×10⁻⁵ for analysis, as rates slower than this could not be estimated accurately. Values for kₒₙ and koff are presented in the tables below as the mean of the individual calculated values for each antibody for each TG2 species from multiple concentrations +/−1 standard deviation. KD values are calculated as mean koff/mean kₒₙ.
For orientation: SPR reads the build-up and loss of mass on a sensor chip optically.

Test [2] addresses T2, cynomolgus monkey TG2 (cynomolgus monkey, UniProt A0A2K5VXI8 2-687).
T2 construct: Recombinant, from Trenzyme; also called cynomogulus monkey TG2; cyano TG2
T2 sequence: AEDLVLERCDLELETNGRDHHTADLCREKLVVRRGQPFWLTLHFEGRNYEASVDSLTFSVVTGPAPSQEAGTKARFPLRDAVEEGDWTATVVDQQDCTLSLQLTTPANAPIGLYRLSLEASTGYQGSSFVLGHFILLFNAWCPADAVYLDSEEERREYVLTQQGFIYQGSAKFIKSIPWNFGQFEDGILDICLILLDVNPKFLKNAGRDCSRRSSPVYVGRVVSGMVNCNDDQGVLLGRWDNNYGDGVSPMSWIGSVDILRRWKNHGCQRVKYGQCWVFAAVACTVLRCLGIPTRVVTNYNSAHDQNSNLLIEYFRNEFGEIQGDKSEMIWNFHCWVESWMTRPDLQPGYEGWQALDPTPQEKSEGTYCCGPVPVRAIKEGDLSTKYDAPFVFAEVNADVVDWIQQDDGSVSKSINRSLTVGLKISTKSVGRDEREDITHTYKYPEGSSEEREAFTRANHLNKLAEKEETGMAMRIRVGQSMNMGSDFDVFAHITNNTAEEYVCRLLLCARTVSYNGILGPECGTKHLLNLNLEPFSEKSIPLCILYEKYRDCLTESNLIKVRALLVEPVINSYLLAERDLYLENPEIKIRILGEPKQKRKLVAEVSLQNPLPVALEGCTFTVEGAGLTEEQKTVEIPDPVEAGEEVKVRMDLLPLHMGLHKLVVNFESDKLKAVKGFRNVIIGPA
As to the kind of experiment: SPR (Biacore T200), antibody captured on anti-human IgG1 Fc chip, cynomolgus TG2 injected; -Ca2+. The procedure:
(§4) The method employed to determine the affinity of the anti-TG2 antibodies involved the capture of the chimeric or humanised antibodies on a MAH coated CM5 chip, followed by the injection of a series of TG2 samples in running buffer. The running buffer was 1× HBS-P+ containing 1 mM CaCl₂, or 1×HBS-EP+ for calcium-free experiments. Antibody capture was carried out for a contact time of 120 seconds at a flow rate of 10 μl/min resulting in the capture of approximately 40-80 RU. TG2 was injected over the immobilised antibody at concentrations ranging from 25 nM to 400 nM with a contact time up to 600 seconds at a flow rate of 30 μl/min. Dissociation of TG2 was typically measured for up to 5400 seconds (1.5 hours). Regeneration of the chip was then performed using 3 M MgCl₂, for a contact time of 60 seconds at a flow rate of […], followed by a 300s stabilisation period before the next sample. For each of human and cynomolgus monkey TG2, at least 5 injections at a variety of concentrations were performed in at least two separate experiments.
as §3

In test [3] the target is T2, cynomolgus monkey TG2. The experiment in a line: SPR (Biacore T200), antibody captured on anti-human IgG1 Fc chip, cynomolgus TG2 injected; +Ca2+. The procedure: as §4, §3
For test [4], the target named is T1, human transglutaminase type 2 (TG2). The experiment in a line: SPR (Biacore T200), antibody captured on anti-human IgG1 Fc chip, human TG2 injected; +Ca2+. The procedure: as §1, §2, §3
The target in test [5] is T3, rat TG2 (rat, UniProt Q9WVJ6 1-686).
T3 sequence: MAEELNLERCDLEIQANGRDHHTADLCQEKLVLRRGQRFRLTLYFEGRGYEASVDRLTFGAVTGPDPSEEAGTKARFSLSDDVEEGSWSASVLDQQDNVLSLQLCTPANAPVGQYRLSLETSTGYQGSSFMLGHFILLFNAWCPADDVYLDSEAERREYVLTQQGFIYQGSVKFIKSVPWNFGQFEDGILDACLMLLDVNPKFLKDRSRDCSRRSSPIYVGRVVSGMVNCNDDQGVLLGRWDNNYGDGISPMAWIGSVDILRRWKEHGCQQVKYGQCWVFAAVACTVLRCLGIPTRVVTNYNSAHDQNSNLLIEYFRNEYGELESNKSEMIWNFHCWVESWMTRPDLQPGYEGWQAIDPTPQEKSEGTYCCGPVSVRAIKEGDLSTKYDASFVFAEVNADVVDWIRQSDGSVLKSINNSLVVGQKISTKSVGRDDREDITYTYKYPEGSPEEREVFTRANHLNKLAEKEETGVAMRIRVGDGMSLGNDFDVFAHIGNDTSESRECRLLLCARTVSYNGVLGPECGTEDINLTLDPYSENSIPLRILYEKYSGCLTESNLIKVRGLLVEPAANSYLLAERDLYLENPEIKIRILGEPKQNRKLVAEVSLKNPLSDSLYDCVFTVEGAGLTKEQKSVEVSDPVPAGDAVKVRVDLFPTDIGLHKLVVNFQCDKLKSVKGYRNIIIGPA
As to the kind of experiment: western blot and ELISA.

Test [6] addresses T1, human transglutaminase type 2 (TG2). As to the kind of experiment: cell-based or functional assay.
Test [7] has as its target T2, cynomolgus monkey TG2. The experiment in a line: SPR (Biacore T200), antibody captured on anti-human IgG1 Fc chip, cynomolgus TG2 injected; Ca2+ condition not marked in this row. As for the experimental part:
as §4, §3

The target in test [8] is T1, human transglutaminase type 2 (TG2). As to the kind of experiment: SPR (Biacore T200), antibody captured on anti-human IgG1 Fc chip, human TG2 injected; Ca2+ condition not marked in this row. The procedure:
as §4, §3

For test [9], the target named is T3, rat TG2. The experiment in a line: cell-based or functional assay.

Substitutions are numbered along the chain they refer to. Where only a bound is given, the exact number is not on record here.

B1: cAB003 chimeric anti-TG2 antibody (murine AB1 variable regions, human IgG1 and human kappa) (antibody, V domains shown)
VH: EVQLVESGGGLVKPGGSLKLSCAASGFTLSSSAMSWVRQTPDRRLEWVATISVGGGKTYYPDSVKGRFTISRDNAKNTLYLQMNSLRSEDTAMYYCAKLISLYWGQGTTLTVSS
VL: DIKMTQSPSSMYASLGERVTITCKASQDINSYLTWFQQKPGKSPKTLIYRTNRLFDGVPSRFSGSGSGQDFFLTISSLEYEDMGIYYCLQYDDFPYTFGGGTKLEIK
notes: The versions differ only in the first 7 residues; also called chimeric AB1
The Kd is a measure of binding affinity in units of concentration. As usually defined, the koff is the first-order rate constant of dissociation. One may read the kon as a measure of how fast the partners come together. For B1, the equilibrium dissociation constant (Kd) was below 100 pM in test [1], 93 pM with cynomolgus monkey TG2 [2], 50 pM with cynomolgus monkey TG2 [3] and below 60 pM in test [4]. Besides, the koff in test [1] was below 1e-05 s⁻¹; with cynomolgus monkey TG2 [2] it was 1.3e-05 s⁻¹; with cynomolgus monkey TG2 [3], 1.2e-05 s⁻¹; in test [4], below 1e-05 s⁻¹. Besides, the kon in [1] was determined as 86000 M⁻¹ s⁻¹; in the test with cynomolgus monkey TG2 [2] it was 140000 M⁻¹ s⁻¹; in the test with cynomolgus monkey TG2 [3], 240000 M⁻¹ s⁻¹; in [4], 170000 M⁻¹ s⁻¹.

B2: BB7 murine monoclonal anti-TG2 antibody (antibody, V domains shown)
VH: AVQLVESGGGLVKPGGSLKLSCAASGIIFSSSAMSWVRQTPEKRLEWVATISSGGRSTYYPDSVKGRFTVSRDSAKNTLYLQMDSLRSEDTAIYYCAKLISPYWGQGTTLTVSS
VL: B1 VL with D1A, T20I, R50L, F55M, D70E, F72L, S77G, Y80H, D92V
notes: Mouse IgG from hybridoma (gamma-1 primer MHCG1, kappa); also called mBB001
With B2, the binding result with rat TG2 [5] is listed as “binds”.

B3: hBB001AA humanised BB7 antibody (BB7 RHA with BB7 RKA) (antibody, V domains shown)
VH: EVQLLESGGGLVQPGGSLRLSCAASGIIFSSSAMSWVRQAPGKGLEWVATISSGGRSTYYPDSVKGRFTVSRDSSKNTLYLQMNSLRAEDTAVYYCAKLISPYWGQGTLVTVSS
VL: DIKMTQSPSSLSASVGDRVTITCKASQDINSYLTWFQQKPGKAPKTLIYLTNRLMDGVPSRFSGSGSGQEFLLTISSLQPEDFATYYCLQYVDFPYTFGQGTKVEIK
notes: The name AA is read as heavy version RHA + kappa version RKA; also called hBB01AA
As to B3, in [6], the “IC50, inhibition of extracellular TG2 activity of HK2 cells (biotin cadaverine incorporation into fibronectin)” value is 19800 pM. In the test with cynomolgus monkey TG2 [7], this molecule came in with a dissociation constant Kd below 30 pM, a koff below 1e-05 s⁻¹ and a kon of 300000 M⁻¹ s⁻¹. The same molecule had a kon in [8] of 270000 M⁻¹ s⁻¹.

B4: hAB004 (hAB001AE) humanised AB1 antibody, heavy chain version RHA with light chain version RKE (antibody, V domains shown)
VH: B3 VH with I27F, I28T, A49S, S53V, R56G, S57K, V70I, S74N, P102L
VL: EIVLTQSPSSLSASVGDRVTITCKASQDINSYLTWYQQKPGKAPKLLIYRTNRLFDGVPSRFSGSGSGTDFFFTISSLQPEDFGTYYCLQYDDFPYTFGGGTKLEIK
notes: Captured by anti-human IgG1 Fc in SPR
Regarding B4, binding with cynomolgus monkey TG2 [7] was put at a Kd of 11 pM.

B5: hBB001BB humanised BB7 antibody (BB7 RHB with BB7 RKB) (antibody, V domains shown)
VH: B3 VH with I27F, I28T, A49S, V70I, S74N
VL: B3 VL with K3Q, T46S, Q69T, E70D, L72F
notes: The name BB is read as heavy version RHB + kappa version RKB
With B5, the “IC50, inhibition of extracellular TG2 activity of HK2 cells (biotin cadaverine incorporation into fibronectin)” value in test [6] worked out at 4900 pM. In the test with cynomolgus monkey TG2 [7], the Kd was found to be 140 pM, the koff turned out to be 3.7e-05 s⁻¹ and the kon stood at 270000 M⁻¹ s⁻¹. In test [8], this molecule displayed an equilibrium dissociation constant (Kd) below 40 pM, a koff below 1e-05 s⁻¹ and an on-rate constant (kon) of 240000 M⁻¹ s⁻¹.

B6: DH2 murine monoclonal anti-TG2 antibody (antibody, V domains shown)
VH: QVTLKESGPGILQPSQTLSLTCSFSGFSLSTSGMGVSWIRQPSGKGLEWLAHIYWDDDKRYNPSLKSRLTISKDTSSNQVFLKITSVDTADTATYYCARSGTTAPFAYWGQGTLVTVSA
VL: QIVLTQSPAIMSASPGEKVTMTCSASSSVSYMYWYQQKPGSSPRLLIYDTSNLASGVPVRFSGSGSGTSYSLTISRMEAEDAATFYCQQWSSSPLTFGAGTKLELK
As for B6, the “IC50, 3H-putrescine incorporation TG activity assay” value with rat TG2 [9] is 0.000223 mg/ml of IgG (amount required to inhibit 1 ng of TG2).

B7: DD9 murine monoclonal anti-TG2 antibody (antibody, V domains shown)
VH: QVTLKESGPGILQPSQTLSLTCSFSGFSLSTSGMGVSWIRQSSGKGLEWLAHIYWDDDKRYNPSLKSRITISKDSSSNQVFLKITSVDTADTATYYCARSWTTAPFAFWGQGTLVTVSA
VL: B6 VL with S30D, E78G, F85Y, S91N
notes: Mouse IgG from hybridoma (gamma-2a primer MHCG2A, kappa); also called mDD9001
Take B7: the binding result with rat TG2 [5] is recorded as “binds”.
